Biological target: I-A^q molecule of MHC (mouse (DBA/1))
Assay: cell-based or functional assay

IL-2 U/ml, T-cell hybridoma 2qCII92.33, molar ratio 0:1 (no competitor; baseline in the row of CII 245-270 [s260, 261, 263]): 160 U/ml
IL-2 U/ml, T-cell hybridoma 2qCII92.33, molar ratio 0:1 (no competitor; baseline in the row of CII 245-270 [s266, 267, 269]): 160 U/ml
IL-2 U/ml, T-cell hybridoma qCII85.33, molar ratio 0:1 (no competitor; baseline in the row of CII 245-270 [s260, 261, 263]): 640 U/ml
IL-2 U/ml, T-cell hybridoma qCII85.33, molar ratio 0:1 (no competitor; baseline in the row of CII 245-270 [s266, 267, 269]): 640 U/ml
IL-2 U/ml, T-cell hybridoma qCII98.10, molar ratio 0:1 (no competitor; baseline in the row of CII 245-270 [s260, 261, 263]): 160 U/ml
IL-2 U/ml, T-cell hybridoma qCII98.10, molar ratio 0:1 (no competitor; baseline in the row of CII 245-270 [s266, 267, 269]): 160 U/ml
Binder: PTGPLGPKGQTGZLGIAGFKGZQGPK [CII 245-270]

From patent publication US6423315
